{"source": "patent US20260167699A1", "about": "(Chugai, published 2026)", "binders": {"B1": {"name": "GpH7-A5/GpH7-B3 variant T335_14T/GpL16-k0 (antibody, human IgG1, kappa)", "heavy 1": "not shown", "heavy 2": "not shown", "light": "DIVMTQSPLSLPVTPGEPASISCQASESLVHSNRNTYLHWYLQKPGQSPQLLIYKVSNRFSGVPDRFSGSGSGTDFTLKISRVEAEDVGVYYCSQNTHVPPTFGQGTKVEIERTVAAPSVFIFPPSDEQLKSGTASVVCLLNNFYPREAKVQWKVDNALQSGNSQESVTEQDSKDSTYSLSSTLTLSKADYEKHKVYACEVTHQGLSSPVTKSFNRGEC", "notes": "also called He Ab"}, "B2": {"name": "GpH7-A5/GpH7-B3 variant A330_15Y/GpL16-k0 (antibody, human IgG1, kappa)", "heavy 1": "not shown", "heavy 2": "not shown", "light": "B1 light", "notes": "heterodimerized IgG1 (He Ab), mutation in one H chain only; also called He Ab"}, "B3": {"name": "GpH7-A5/GpH7-B3 variant E333_07I/GpL16-k0 (antibody, human IgG1, kappa)", "heavy 1": "not shown", "heavy 2": "not shown", "light": "B1 light", "notes": "as for B2"}, "B4": {"name": "GpH7-A5/GpH7-B3 variant E333_04F/GpL16-k0 (antibody, human IgG1, kappa)", "heavy 1": "not shown", "heavy 2": "not shown", "light": "B1 light", "notes": "as for B2"}, "B5": {"name": "GpH7-A5/GpH7-B3 variant A330_11K/GpL16-k0 (antibody, human IgG1, kappa)", "heavy 1": "not shown", "heavy 2": "not shown", "light": "B1 light", "notes": "as for B2"}, "B6": {"name": "GpH7-A5/GpH7-B3 variant A330_06M/GpL16-k0 (antibody, human IgG1, kappa)", "heavy 1": "not shown", "heavy 2": "not shown", "light": "B1 light", "notes": "as for B2"}, "B7": {"name": "GpH7-A5/GpH7-B3 variant E333_03V/GpL16-k0 (antibody, human IgG1, kappa)", "heavy 1": "not shown", "heavy 2": "not shown", "light": "B1 light", "notes": "as for B2"}, "B8": {"name": "GpH7-A5/GpH7-B3 variant A330_12R/GpL16-k0 (antibody, human IgG1, kappa)", "heavy 1": "not shown", "heavy 2": "not shown", "light": "B1 light", "notes": "as for B2"}, "B9": {"name": "GpH7-A5/GpH7-B3 variant E333_08L/GpL16-k0 (antibody, human IgG1, kappa)", "heavy 1": "not shown", "heavy 2": "not shown", "light": "B1 light", "notes": "as for B2"}, "B10": {"name": "GpH7-A5/GpH7-B3 variant E333_05P/GpL16-k0 (antibody, human IgG1, kappa)", "heavy 1": "not shown", "heavy 2": "not shown", "light": "B1 light", "notes": "as for B2"}, "B11": {"name": "GpH7-A5/GpH7-B3 variant E333_01G/GpL16-k0 (antibody, human IgG1, kappa)", "heavy 1": "not shown", "heavy 2": "not shown", "light": "B1 light", "notes": "as for B2"}, "B12": {"name": "GpH7-A5/GpH7-B3 variant A330_05P/GpL16-k0 (antibody, human IgG1, kappa)", "heavy 1": "not shown", "heavy 2": "not shown", "light": "B1 light", "notes": "as for B2"}, "B13": {"name": "GpH7-A5/GpH7-B3 variant E333_02A/GpL16-k0 (antibody, human IgG1, kappa)", "heavy 1": "not shown", "heavy 2": "not shown", "light": "B1 light", "notes": "as for B2"}, "B14": {"name": "GpH7-A5/GpH7-B3 variant E333_06M/GpL16-k0 (antibody, human IgG1, kappa)", "heavy 1": "not shown", "heavy 2": "not shown", "light": "B1 light", "notes": "as for B2"}}, "note": "Substitutions are numbered along the chain they refer to.", "data": [{"target": "T1, FcγRIa extracellular domain with C-terminal His tag (human, UniProt P12314 16-292)", "T1 construct": "extracellular domain; also called 1a; CD64", "T1 sequence (P12314 other isoform, or with tags, fused parts or gaps)": "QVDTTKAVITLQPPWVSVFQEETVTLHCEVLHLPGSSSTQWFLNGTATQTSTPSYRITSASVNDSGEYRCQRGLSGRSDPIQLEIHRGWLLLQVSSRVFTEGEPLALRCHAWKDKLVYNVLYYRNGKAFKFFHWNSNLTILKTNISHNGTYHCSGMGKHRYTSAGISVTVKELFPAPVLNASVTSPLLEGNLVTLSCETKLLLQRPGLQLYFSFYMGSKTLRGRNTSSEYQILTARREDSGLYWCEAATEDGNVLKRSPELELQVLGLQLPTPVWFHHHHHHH", "experiment": "SPR; % of GpH7-A5/GpH7-B3/GpL16-k0", "units": {"He/Con 1a": "%"}, "values": [{"binder": "B1", "He/Con 1a": 110}, {"binder": "B2", "He/Con 1a": 108}, {"binder": "B3", "He/Con 1a": 96.5}, {"binder": "B4", "He/Con 1a": 96.9}, {"binder": "B5", "He/Con 1a": 107}, {"binder": "B6", "He/Con 1a": 108}, {"binder": "B7", "He/Con 1a": 99.4}, {"binder": "B8", "He/Con 1a": 103}, {"binder": "B9", "He/Con 1a": 96.8}, {"binder": "B10", "He/Con 1a": 96.9}, {"binder": "B11", "He/Con 1a": 97.2}, {"binder": "B12", "He/Con 1a": 105}, {"binder": "B13", "He/Con 1a": 97.7}, {"binder": "B14", "He/Con 1a": 96.7}]}, {"target": "T2, FcγRIIb extracellular domain with C-terminal His tag (human, UniProt P31994 43-217)", "T2 construct": "extracellular domain; also called 2b; CD32", "T2 sequence": "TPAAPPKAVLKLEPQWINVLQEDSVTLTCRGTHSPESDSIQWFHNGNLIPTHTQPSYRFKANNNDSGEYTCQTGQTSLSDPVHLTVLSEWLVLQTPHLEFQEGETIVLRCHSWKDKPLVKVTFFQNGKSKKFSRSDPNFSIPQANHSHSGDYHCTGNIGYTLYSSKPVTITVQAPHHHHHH", "experiment": "SPR; % of GpH7-A5/GpH7-B3/GpL16-k0", "units": {"He/Con 2b": "%"}, "values": [{"binder": "B1", "He/Con 2b": 116}, {"binder": "B2", "He/Con 2b": 107}, {"binder": "B3", "He/Con 2b": 124}, {"binder": "B4", "He/Con 2b": 122}, {"binder": "B5", "He/Con 2b": 107}, {"binder": "B6", "He/Con 2b": 90.9}, {"binder": "B7", "He/Con 2b": 120}, {"binder": "B8", "He/Con 2b": 95.8}, {"binder": "B9", "He/Con 2b": 123}, {"binder": "B10", "He/Con 2b": 126}, {"binder": "B11", "He/Con 2b": 105}, {"binder": "B12", "He/Con 2b": 154}, {"binder": "B13", "He/Con 2b": 108}, {"binder": "B14", "He/Con 2b": 110}]}, {"target": "T3, FcγRIIa(H) extracellular domain with C-terminal His tag (human, UniProt P12318 34-217)", "T3 construct": "extracellular domain; H131 allotype; also called 2aH; CD32", "T3 sequence": "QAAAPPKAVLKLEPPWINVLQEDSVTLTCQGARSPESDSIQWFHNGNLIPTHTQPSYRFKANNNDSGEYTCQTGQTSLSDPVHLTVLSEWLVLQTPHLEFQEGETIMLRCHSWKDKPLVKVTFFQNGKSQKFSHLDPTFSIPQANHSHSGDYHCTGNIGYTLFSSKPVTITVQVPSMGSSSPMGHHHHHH", "experiment": "SPR; % of GpH7-A5/GpH7-B3/GpL16-k0", "units": {"He/Con 2aH": "%"}, "values": [{"binder": "B1", "He/Con 2aH": 112}, {"binder": "B2", "He/Con 2aH": 106}, {"binder": "B3", "He/Con 2aH": 113}, {"binder": "B4", "He/Con 2aH": 116}, {"binder": "B5", "He/Con 2aH": 118}, {"binder": "B6", "He/Con 2aH": 101}, {"binder": "B7", "He/Con 2aH": 112}, {"binder": "B8", "He/Con 2aH": 116}, {"binder": "B9", "He/Con 2aH": 116}, {"binder": "B10", "He/Con 2aH": 112}, {"binder": "B11", "He/Con 2aH": 112}, {"binder": "B12", "He/Con 2aH": 92.6}, {"binder": "B13", "He/Con 2aH": 115}, {"binder": "B14", "He/Con 2aH": 110}]}, {"target": "T4, FcγRIIa(R) extracellular domain with C-terminal His tag (human, UniProt P12318 34-217)", "T4 construct": "extracellular domain; R131 allotype; also called 2aR; CD32", "T4 sequence": "T3 sequence with H134R", "experiment": "SPR; % of GpH7-A5/GpH7-B3/GpL16-k0", "units": {"He/Con 2aR": "%"}, "values": [{"binder": "B1", "He/Con 2aR": 116}, {"binder": "B2", "He/Con 2aR": 114}, {"binder": "B3", "He/Con 2aR": 142}, {"binder": "B4", "He/Con 2aR": 139}, {"binder": "B5", "He/Con 2aR": 124}, {"binder": "B6", "He/Con 2aR": 107}, {"binder": "B7", "He/Con 2aR": 135}, {"binder": "B8", "He/Con 2aR": 116}, {"binder": "B9", "He/Con 2aR": 140}, {"binder": "B10", "He/Con 2aR": 143}, {"binder": "B11", "He/Con 2aR": 127}, {"binder": "B12", "He/Con 2aR": 129}, {"binder": "B13", "He/Con 2aR": 128}, {"binder": "B14", "He/Con 2aR": 132}]}, {"target": "T5, FcγRIIIa extracellular domain with C-terminal His tag (human, UniProt P08637 17-208)", "T5 construct": "extracellular domain; also called 3a; CD16", "T5 sequence (P08637 other isoform, or with tags, fused parts or gaps)": "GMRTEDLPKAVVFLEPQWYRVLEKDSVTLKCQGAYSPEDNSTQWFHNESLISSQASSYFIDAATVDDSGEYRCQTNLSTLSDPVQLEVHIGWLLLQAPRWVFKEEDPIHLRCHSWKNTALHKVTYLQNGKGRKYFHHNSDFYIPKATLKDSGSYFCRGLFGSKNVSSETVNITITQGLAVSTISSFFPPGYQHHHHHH", "experiment": "SPR; % of GpH7-A5/GpH7-B3/GpL16-k0", "units": {"He/Con 3a": "%"}, "values": [{"binder": "B1", "He/Con 3a": 104}, {"binder": "B2", "He/Con 3a": 122}, {"binder": "B3", "He/Con 3a": 100}, {"binder": "B4", "He/Con 3a": 104}, {"binder": "B5", "He/Con 3a": 91.8}, {"binder": "B6", "He/Con 3a": 139}, {"binder": "B7", "He/Con 3a": 106}, {"binder": "B8", "He/Con 3a": 77.3}, {"binder": "B9", "He/Con 3a": 102}, {"binder": "B10", "He/Con 3a": 100}, {"binder": "B11", "He/Con 3a": 101}, {"binder": "B12", "He/Con 3a": 152}, {"binder": "B13", "He/Con 3a": 108}, {"binder": "B14", "He/Con 3a": 100}]}]}
